Results reported in the DeepSol protein solubility set.

Test: soluble on expression in E. coli; label from the status in PepcDB or PDB records

Row | Sequence | soluble on expression in E. coli
1 | MFTAGSATVTPKLNGVAGPAFQVIKDSLTLGLNALTLTDVTKNAAYGVEIESLVLEINAPAA | soluble
2 | MFTIRKARIDDCGLINQMAGEVFPATYQEILSPGQLDYMMDWMYSPENIRKQMEEEGHVYFIAYEGDEPCGYVSVQQQEENVFHLQKIYVLPHFQGAHCGSFLFREAVRYIKEVHPEPCLMELNVNRNNKALLFYERMGMRKLREGDFPIGNGYYMNDYIMGLDI | not soluble
3 | MFVDRQRIDLLNRLIDARVDLAAYVQLRKAKGYMSVSESNHLRDNFFKLNRELHDKSLRLNLHLDQEEWSALHHAEEALATAAVCLMSGHHDCPTVITVNADKLENCLMSLTLSIQSLQKHAMLEKA | soluble
4 | MFVFMLLLLLPFTISKAKDFPANPIEKAGYKLDFSDEFNGPTLDREKWTDYYLPHWCKDPESAKANYRFENGSLVEYITEDQKPWCPEHDGTVRSSAIMSFDKSWIHNFSGTTDNHERNEWRGYTTKYGYFEIRAKLSNTGGGGHQAWWMVGMQDDTNDWFNSKQTGEIDILETFFSKKDTWRIAAYGWNDPNFQTSWTISEDKVPSGDPTSEYHIYAMEWTPTALKFYYDNELFKVIYGSPDYEMGTILNIYTDAGSGAHNDVWPKEWAIDYMRVWKPVDGYKESESLNNYLIRNRQTGKFLYIEENNDKVSYGDITLKNEKNAKWSKEYRDGYTLLKNNETGEYLNIENQTGYIEHGKVPKTWWSAQWSEVPVDGYTRFVNRWKPNMSIHTESYEGVLQYGNVPNTYWTSQWQLIPVE | soluble
5 | MFVKNVNFYYRQILEKFENSYFAEDLTKVIIGIDCDYLDANELSFSEFKAKYYEALSKNKICDFAGFFGVFSANFVSLFEKIPLSSKKNYDFPLFLFANAKAYLIYEKNSKMFFKFGASKYFEYLKDDIEPMKKKQKNDFEILNSLEDEKNDFLKMCEKAKEYLLSGDIFQVVLSKQLCIKHQVNAFDYYESLSALNPSAYMFYFPSKYGVVLGSSPEFLLKIKKREIYLAPIAGTRNLENNCDLLALEKDLLSDEKELSEHKMLVDLARNDASKFGTQTRVENLFSIIKNKFVMHIVSEVYANMKEDASIFDVIEAVFPAGTLSGAPKIRALEITSELEDCDRGIYGGAVGFLNFNEDITLAILIRCAFFTQDKAYLASGAGIVLQSESQKEYAEICAKRKALLVAFENLKKENQ | not soluble
6 | MFVTLEVSDRAPLEATMSTPHHPVAIIGGGLGGLTAARVLHVNGIESAVFDLESGPEARTQGGMLDIHEENGQEAIRAAGLHDEFREIIHEGGQAMRLVGPDGTVRVATEDQGDGGRPEVDRGDLRGLLLNSLPDGTVHWRHKATGARALDDGRHEVTFADGSALTTDLLIGADGAWSRIRPLLSDAEPAYTGISFVESDLHEADTRHPRSAALVGGGFFISLGDRRGFLAHRETDGSLHVYTALRADEGWIDTVDFTDHAAAKAAVLAHFDGWDEGLRSLVAHAETITPRRIHALPVGHRWKRTPGVTLLGDAAHLMSPFAGEGANLAMYDGAELALALAAHPGDTEAALTQYEEGLFPRSEASAVESAGSLDTMFGTDGLEQMIGFFGAGRAEALEHHHHHH | not soluble
7 | MGAFDRVKAQVASDSKWTSAPYKGFVAGSPSNTYIDIVSTAFEDATNTMNFARHSKYDEMYSPYLGSFRERHNYTSIAPSLCINKTNRAIEYDLAPHKAYNPRQSEWLLEKDKKYRVRGARNLIYTKSASDISLPPLTRRTFTVPTDTLRHQNQFLYWNGRALGLDYVAPFLRREDYSRHEDRRYQRIYWSPHFIDLLPSCRHSAHLMLSAY | not soluble
8 | MGAGPSDHRAITLEGTTVMVPVYNSTAQQSPYQLTTTADGGVALHHQGELTTTLETPPEPHFYNLQTAESIPYKAIALLHGKDVLATTLQQTCIRFRDRSESCQFCAIEQSLTSGQTIVRKTPEQVAEVVAAAVRLDGVRQLVMTTGTPNSRDRGARLMAETAAAVKAVVDIPIQAQCEPPDDPVWFSRMKAAGVNSLGMHLEVVEPEVRRRILPGKSELTLEHYYRAFEQAVAVFGRGEVSTYLLAGLGDSADSLIDCSRRLIAIGVYPFIVPFVPIAGTPLERHPAPTTAFMLQIYEAVGALLHDSDLRSAAMSAGLEHHHHHH | not soluble
9 | MGAIKPLEDWLKNLGVKSDIRPNLLAGMEINDQICSVPLQTSNIGILERSKLFQAAGITEPPKTWEELRAVVKKSTIDKNGDHRPEQYGMLLTFGKGGWTVFSWLPFLFAAQGEIITDHYPSLSNPGAITALQFW | not soluble
10 | MGALESLRGNADLAYILSMEPCGHCLIINNVNFCRESGLRTRTGSNIDCEKLRRRFSSLHFMVEVKGDLTAKKMVLALLELARQDHGALDCCVVVILSHGCQASHLQFPGAVYGTDGCPVSVEKIVNIFNGTSCPSLGGKPKLFFIQACGGEQKDHGFEVASTSPEDESPGSNPEPDATPFQEGLRTFDQLDAISSLPTPSDIFVSYSTFPGFVSWRDPKSGSWYVETLDDIFEQWAHSEDLQSLLLRVANAVSVKGIYKQMPGCFNFLRKKLFFKTSHHHHHH | soluble
11 | MGAMIVKEVYETAEKIKSMEIRGAGRIARAAAQALMIQAEKSKAKEPEELWNELKVASKILYNTRPTAVSLPNALRYVMHRVKAAYLGGADLETLRFTAINSAKEFIYNSEKAIERIGEIGAKRIEDGDIIMTHCHSKAAISVMKKAFEQGKNIKVIVTETRPKWQGKITAKELASYGIPVIYIVDSAARHYMKMTDKVVMGADSITANGAVINKIGTSLIALTAKEHRVWVMIAAETYKFHPATMLGQLVEIEMRDPTEVIPEEELRTWPKNIEVWNPAFDVTPPEYIDVIITERGIIPPYAAIDILKEEFGWALKYKEPWED | soluble
12 | MGATGSSQLEKEISTTESVNNANEHYYGLVNALFFCRPFREKVLNYKQTLKKSGASKDNLVTCLADLFHSIASQKRRVGTIAPKRFITKLKKENELFDNYMQQDAHEFFNYLINTISETLIQEKIAEREKASRHGTLKKGNVTVNLAPATAGLPRSDEKGTSERNGGITVEGNEFLNKSDTTTWIHEIFQGILTNETRCLSCETVSSKDEDFLDLSIDVEQNTSISHCLRVFSETETLCGDQKYFCETCSSKQEAQKRMRIKKPPQLLALHLKRFKFVEPLNRHTKLSYRVVFPLELRLFNVSDDAEYGDRMYDLVATVVHCGATPNRGHYITLVKSNSFWLVFDDDIVEKLEVSSMEEFSGMSTDANIQMPPGNQSAPQKEFRICLYSVLSGKRLRC | not soluble
13 | MGCLATPVRTEVLKALEYSQRICALRSCSRFIRSPRAMFKRQHTDADVLEHPVSASAPATWSLIGEHTDHAGGVVLMSVAQLRTHVEATTRADDIVSVDYYIADPEMPVQQSAISLSDVFEWQNSLSGDHEPLESP | not soluble
14 | MGDIMQQQLTQALEAYLQKLDDEARIEAINAFRQVLHHYSPFRSQPVDCVLWVKQELVAPNDYNPNNVAPPEKRLLQTSLEADGFTQPVVVIQQRPQAYTIVDGFHRHELACSKAALKKTLKGYLPVTCLTSEAASRDGLMAATIRHNRARGRHQIHAMSEIVRELTQLGWTPQKIGKELGMDADEVLRLKQISGLTEMFAGRQFSQAWTIK | not soluble
15 | MGDLKDGTYKLEEKNEKNGYRAVFEMTVKDGKITESKYDNINADGKSKTEDTKYEESMKAKSGVGPKEYIKQLNDSFVKAQSASGVEVVTGATHSSESFQNYAQQLIQAAQAGNTDTIEIDNGATLKDGTYSLKEKNDSNGYHTTFSMTVKDGKVTESNYDNVNADGKSKKDDTEYESKMKDVAGVGPKEYIETLNKEFVKAMGEEDGSPAGVEVVTGATHSTHSFINYAQQLVNAAEKGDTTEIVVDNIVTKLEHHHHHH | soluble
16 | MGEEEESLAILRRHVMNELLDTERAYVEELLCVLEGYAAEMDNPLMAHLISTGLQNKKNILFGNMEEIYHFHNRIFLRELESCIDCPELVGRCFLERMEEFQIYEKYCQNKPRSESLWRQCSDCPFFQECQKKLDHKLSLDSYLLKPVQRITKYQLLLKEMLKYSKHCEGAEDLQEALSSILGILKAVNDSMHLIAITGYDGNLGDLGKLLMQGSFSVWTDHKKGHTKVKELARFKPMQRHLFLHEKAVLFCKKREENGEGYEKAPSYSYKQSLNMTAVGITENVKGDTKKFEIWYNAREEVYIIQAPTPEIKAAWVNAIRKVLTSQLQACREASQHRALEQSHSLEHHHHHH | soluble
